# Laboratory results from US20230348605A1.
# Target: purified human TNC protein (human) (UniProt P24821)
# Test: BLI
row,Binder,Kd
1,"NJT3 (VHH, labelled with Texas Red via sortase-mediated tagging in the ex vivo imaging assay) VHH: QVQLVETGGGLAQAGGSLRLSCAASGRTLSGYAMGWFRQAPGKEREFVAAISWSGRNTYYDYTVQGRFTISKDNAKNTVNLQMNSLKPEDTAVYYCAVSRSLDEFGDGYEMDYWGDGTQVTVSS",< 1 pM
2,"NJT4 (VHH, labelled with Texas Red via sortase-mediated tagging in the ex vivo imaging assay) VHH: QVQLVESGGGLVQPGGSLRLSCAASGFTFSSYTMRWYRQAPGKERELVAFIGVAGGSTKYADSVKGRFTISRDNTKNTVYLQMNTLKPEDTAVYYCYAPLTPYWGQGTQVTVSS",< 1 pM
3,"NJT6 (VHH, labelled with Texas Red or 64Cu via sortase-mediated tagging in the imaging assays) VHH: QVQLVETGGDLVQPGGSLRLSCAASGLTLDYYAIGWVRQAPGKEREGVSCITPQDGNTYYDDSVMGRFTILRDNAKNMVYLQMNNLKPEDTAVYFCAAAGALTLDPSEYEYWGQGTQVTVSS",< 1 pM
